Earlier results as cited in publication PMC2775921.
Where two headings read alike, the source gives them in different places.

How the values were obtained:
[1] = molecular target: IL-2 (Homo sapiens) (UniProt P60568)
[2] = molecular target: IL-2 (Homo sapiens) (UniProt P60568); remark: listed apart in the source

Sequence of UniProt P60568 (P60568 21-153): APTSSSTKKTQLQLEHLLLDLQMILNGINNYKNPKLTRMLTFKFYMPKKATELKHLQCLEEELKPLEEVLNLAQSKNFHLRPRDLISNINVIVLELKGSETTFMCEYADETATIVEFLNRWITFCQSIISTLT

Kd [1] [nM] | Kd [2] [nM] | Substance
10 | – | CD25 (membrane α-chain) (from UniProt P01589)
– | 30 | soluble CD25 (from UniProt P01589)
